Publication PMC10942449 (bioRxiv, 2024)

Assays:
[1] = target: DS-Cav1 (respiratory syncytial virus subtype A, strain A2 | not stated) (UniProt P03420); assay: SEC
[2] = target: DS-Cav1-His6 (respiratory syncytial virus subtype A, strain A2 | not stated) (UniProt P03420); assay: SEC
[3] = target: DS-Cav1-His6 (respiratory syncytial virus subtype A, strain A2 | not stated) (UniProt P03420); assay: cross-linking
[4] = target: sc9–10 DS-Cav1 (respiratory syncytial virus subtype A, strain A2 | not stated) (UniProt P03420); assay: SEC
[5] = target: sc9–10 DS-Cav1-His6 (respiratory syncytial virus subtype A, strain A2 | not stated) (UniProt P03420); assay: SEC
[6] = target: sc9–10 DS-Cav1-His6 (respiratory syncytial virus subtype A, strain A2 | not stated) (UniProt P03420); assay: cross-linking
UFCM1 = UFCM1 (human metapneumovirus, …, UniProt Q1A2Z0, E80D | T127C | N153C | A185P); assay: ELISA
UFCM1-P2 = UFCM1-P2 (human metapneumovirus, …, UniProt Q1A2Z0, E80D | T127C | N153C | A185P | V155P); assay: ELISA

Q: With “DS-Cav1 (from UniProt P03420 26-513) (domain or fragment)” as the molecule, how does the stoichiometry N [1] read?
A: 3

Q: “DS-Cav1-His6 (from UniProt P03420 26-513) (domain or fragment)” was tested. Which stoichiometry N [2] did it give?
A: 3

Q: What about the stoichiometry N [3] of the same molecule?
A: 3

Q: “sc9–10 DS-Cav1 (from UniProt P03420 26-513) (domain or fragment)” was tested. Which stoichiometry N [4] did it give?
A: 3

Q: How did the stoichiometry N [5] turn out when “sc9–10 DS-Cav1-His6 (from UniProt P03420 26-513) (domain or fragment)” was run?
A: 3

Q: And the stoichiometry N [6]?
A: 3

B1: MPE8 IgG (antibody, V domains shown)
VH: EVQLVESGGGLVKPGGSLRLSCAASGFTFSSYSMNWVRQAPGKGLEWVSSISASSSYSDYADSAKGRFTISRDNAKTSLFLQMNSLRAEDTAIYFCARARATGYSSITPYFDIWGQGTLVTVSS
VL: QSVVTQTPSVSGAPGQRVTISCTGSSSNIGAGYDVHWYQQLPGTAPKLLIYDNNNRPSGVPDRFSASKSGTSASLAITGLQAEDEADYYCQSYDRNLSGVFGTGTKVTVL
Q: Does B1 bind (UFCM1)?
A: binds

Q: Does B1 bind (UFCM1-P2)?
A: binds
